The numbers were not newly measured in paper PMC12730246, which cites them from elsewhere.

In general, Kd refers to the free concentration of one partner at which half of the binding sites on the other are occupied at equilibrium, for simple one-to-one binding.

For this data set, the target named is TKS4 peptide (Homo sapiens) (UniProt A1X283).

Regarding “TKS4 tandem SH3 tandem SH3 (from UniProt A1X283)”, the Kd was 12 µM.
